Patent US20210347908A1 (ELPISCIENCE SUZHOU BIOPHARMA, published 2021)

Assays:
[1] = biological target: T1, chimeric SIRPα of B-hSIRPA mice (IgV domain of human SIRPα); IgC1/C2, transmembrane and intracellular domains … (human; mouse, UniProt P78324 31-149; P97797 151-513, limits assumed); assay: FACS on spleen cells of B-hSIRPA mice, anti-human IgG secondary antibody, gated on mCD11b/mF4/80 double positive monocytes
T1 construct: domain: IgV domain;domain: IgC1/C2, transmembrane and intracellular domains; whole, on cells (mCD11b+ mF4/80+ spleen monocytes); also called B-hSIRPA mice derived primary monocytes
T1 sequence (P78324 other isoform, or with tags, fused parts or gaps mutant limits assumed): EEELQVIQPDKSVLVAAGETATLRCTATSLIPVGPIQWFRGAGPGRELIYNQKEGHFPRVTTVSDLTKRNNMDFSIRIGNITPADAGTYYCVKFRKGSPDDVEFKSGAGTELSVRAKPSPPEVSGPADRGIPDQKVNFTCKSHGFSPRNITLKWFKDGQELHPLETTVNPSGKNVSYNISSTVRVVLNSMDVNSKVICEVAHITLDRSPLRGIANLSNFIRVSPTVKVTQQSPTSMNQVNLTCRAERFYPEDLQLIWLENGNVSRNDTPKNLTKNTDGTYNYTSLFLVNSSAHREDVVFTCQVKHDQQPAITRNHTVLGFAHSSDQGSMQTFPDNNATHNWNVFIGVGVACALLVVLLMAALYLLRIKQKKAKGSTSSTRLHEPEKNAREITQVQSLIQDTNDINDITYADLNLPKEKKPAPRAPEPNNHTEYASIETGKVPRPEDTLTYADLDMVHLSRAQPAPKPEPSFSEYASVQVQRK
Method: The humanized mice express a chimeric SIRPα, comprised of IgV domain of human SIRPα and IgC1/C2, transmembrane and intracellular domains of mouse SIRPα. Briefly spleen cells of B-hSIRPA mice were harvested and incubated with anti-SIRPα chimeric antibodies at 4° C. for 1 hour. After washing, fluorescence labeled anti-human IgG 2nd antibody (Life Technologies) was added and incubated at 4° C. for 1 hour. […] Anti-SIRPα positive staining population in mCD11b and mF4/80 double positive subset was calculated.

[2] = biological target: T2, 6×His tagged human SIRPα v1 ECD recombinant protein (human, UniProt P78324 31-373); assay: SPR (Biacore), antibody captured
T2 construct: extracellular domain; bought; also called hSIRPα V1 (SPR antigen)
T2 sequence (P78324 other isoform, or with tags, fused parts or gaps): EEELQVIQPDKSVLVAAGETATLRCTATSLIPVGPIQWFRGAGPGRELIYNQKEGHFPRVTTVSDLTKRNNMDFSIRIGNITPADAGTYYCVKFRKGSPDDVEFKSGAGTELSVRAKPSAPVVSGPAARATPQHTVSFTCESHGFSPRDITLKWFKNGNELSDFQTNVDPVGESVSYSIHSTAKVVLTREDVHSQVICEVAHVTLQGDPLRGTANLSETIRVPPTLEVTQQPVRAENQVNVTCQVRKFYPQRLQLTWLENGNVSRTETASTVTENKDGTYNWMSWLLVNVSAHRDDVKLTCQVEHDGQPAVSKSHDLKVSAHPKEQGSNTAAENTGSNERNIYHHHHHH
Method: (§1) Anti-SIRPα chimeric antibodies were characterized for binding affinity against human SIRPα v1, human SIRPα v2 and C57BL/6 mouse SIRPα using Biacore (GE). Briefly the antibodies to be tested were captured to CM5 chip (GE) using Human Antibody Capture Kit (GE). The antigens of 6×His tagged human SIRPα v1, human SIRPα v2 and C57BL/6 mouse SIRPα ECD recombinant proteins were serially diluted for multiple doses and injected at 30 μl/min for 180 s. Buffer flow was maintained for dissociation of 400 s. 3 M MgCl₂ was used for chip regeneration. The association and dissociation curves were fit with 1:1 binding model, and the Ka/Kd/KD values for each antibody were calculated.

[3] = biological target: 6×His tagged human SIRPα v2 ECD recombinant protein (human); assay: SPR (Biacore), antibody captured
6×His tagged human SIRPα v2 ECD recombinant protein (human), sequence (chain, as listed by the source): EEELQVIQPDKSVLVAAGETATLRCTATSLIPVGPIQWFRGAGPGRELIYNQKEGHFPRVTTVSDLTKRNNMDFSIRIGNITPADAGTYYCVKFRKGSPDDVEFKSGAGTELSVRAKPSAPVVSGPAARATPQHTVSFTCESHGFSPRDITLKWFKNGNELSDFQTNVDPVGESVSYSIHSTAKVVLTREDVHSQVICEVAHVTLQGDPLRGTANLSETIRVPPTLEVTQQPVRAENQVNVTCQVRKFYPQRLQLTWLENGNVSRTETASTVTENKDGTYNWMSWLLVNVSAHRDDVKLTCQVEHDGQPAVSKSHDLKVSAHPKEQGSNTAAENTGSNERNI
Method: as §1

[4] = biological target: T3, 6×His tagged C57BL/6 mouse SIRPα ECD recombinant protein (mouse (C57BL/6), UniProt P97797 32-373); assay: SPR (Biacore), antibody captured
T3 construct: extracellular domain; bought; also called mSIRPα (C57BL/6); mouse SIRPα (C57BL/6) ECD
T3 sequence: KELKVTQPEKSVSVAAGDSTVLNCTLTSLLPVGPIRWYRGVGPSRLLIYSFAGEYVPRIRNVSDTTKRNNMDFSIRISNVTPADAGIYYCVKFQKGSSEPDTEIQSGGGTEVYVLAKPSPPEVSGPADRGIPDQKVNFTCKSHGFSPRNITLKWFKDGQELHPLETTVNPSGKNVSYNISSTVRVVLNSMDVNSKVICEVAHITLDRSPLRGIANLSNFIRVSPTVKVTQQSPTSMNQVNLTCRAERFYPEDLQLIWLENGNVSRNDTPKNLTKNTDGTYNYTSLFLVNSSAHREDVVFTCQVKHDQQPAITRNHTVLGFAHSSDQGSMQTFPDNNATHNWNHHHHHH
Method: as §1

[5] = biological target: T4, full length C57BL/6 mouse SIRPα stably expressed on CHOK1 cells (mouse (C57BL/6), UniProt P97797 32-513); assay: FACS on CHOK1 cells
T4 construct: whole, on cells; also called CHOK1-C57BL/6 mouse SIRPα-2.22 cells
T4 sequence (looked up): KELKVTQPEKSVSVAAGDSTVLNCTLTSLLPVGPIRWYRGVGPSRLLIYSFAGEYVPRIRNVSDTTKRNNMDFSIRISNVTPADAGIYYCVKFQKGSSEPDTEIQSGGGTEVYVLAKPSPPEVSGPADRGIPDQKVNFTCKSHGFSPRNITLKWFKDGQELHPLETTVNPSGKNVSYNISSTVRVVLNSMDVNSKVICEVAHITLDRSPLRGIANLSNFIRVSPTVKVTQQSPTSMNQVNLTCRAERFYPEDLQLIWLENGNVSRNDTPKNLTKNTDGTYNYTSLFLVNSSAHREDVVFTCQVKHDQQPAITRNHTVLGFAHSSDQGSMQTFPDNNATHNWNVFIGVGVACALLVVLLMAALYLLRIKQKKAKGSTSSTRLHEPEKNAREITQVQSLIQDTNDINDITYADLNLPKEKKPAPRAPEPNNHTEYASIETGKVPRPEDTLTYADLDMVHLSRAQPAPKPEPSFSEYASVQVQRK

[6] = biological target: T5, full length cyno SIRPα stably expressed on CHOK1 cells (cynomolgus monkey, UniProt A0A2K5VYQ9 31-507); assay: FACS on CHOK1 cells
T5 construct: whole, on cells; also called CHOK1-cyno SIRPα-2A2 cells; CHOK1-cyno SIRPα
T5 sequence: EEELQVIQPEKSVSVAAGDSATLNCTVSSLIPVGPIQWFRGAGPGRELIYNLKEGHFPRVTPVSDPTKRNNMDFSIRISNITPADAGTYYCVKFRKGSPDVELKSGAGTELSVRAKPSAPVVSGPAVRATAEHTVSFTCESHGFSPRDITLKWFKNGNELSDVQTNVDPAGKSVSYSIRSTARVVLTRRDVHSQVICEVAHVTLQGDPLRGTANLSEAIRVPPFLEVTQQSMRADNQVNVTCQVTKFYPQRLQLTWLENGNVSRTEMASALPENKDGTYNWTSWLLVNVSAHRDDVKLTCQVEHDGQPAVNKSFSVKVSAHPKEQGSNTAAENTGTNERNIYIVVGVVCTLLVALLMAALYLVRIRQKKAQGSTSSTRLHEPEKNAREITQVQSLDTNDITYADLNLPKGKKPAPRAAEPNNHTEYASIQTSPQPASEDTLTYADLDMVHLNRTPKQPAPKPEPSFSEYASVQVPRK

Binder	Positive Staining Population (% in mCD11b, mF4/80 double positive subset) [1] [%]	binding result [1]	Kd [2] [nM]	koff [2] [s⁻¹]	kon [2] [M⁻¹ s⁻¹]	Kd [3] [nM]	koff [3] [s⁻¹]	kon [3] [M⁻¹ s⁻¹]	binding result [4]	MFI at 2 ug/ml [5] [MFI]	EC50 [6] [nM]	Kd [4] [nM]	koff [4] [s⁻¹]	kon [4] [M⁻¹ s⁻¹]
chimeric antibody 050c (antibody, V domains shown) VH: QIQLVQSGPELKKPGETVKISCKASGYTFTHYSMHWVKQAPGKGLKWMGWINTETAEPTYVDDFKGRFAFSLEASASTAFFQINNLKNEDTATYFCARGGLRQGDYWGQGTTLTVSS VL: QIVLTQSPPIMSASPGEKVTLTCSATSSVSASYLYWFQQKPGSSPKLWIYSTSNLASGVPARFSGSGSGTSYSLTISNMEPADAASYFCHQWSSYPYTFGGGTKLEIK	0.16	no binding	3.07	0.000774	252000	4.72	0.000529	112000	no binding	–	–	–	–	–
chimeric antibody 002c (antibody, V domains shown) VH: EVKLEESGGGLVQPGGSMILSCVASGFTFRNYWMNWVRQSPERGLEWIAEITLKSNTYATHYAESVKGRFAISRDDSKSSFYLQMNDLRPEDTGIYYCTTFTKVVADWHLDVWGAGTTVTVSS VL: DVLMTQTPLSLPVSLGDQASISCRSSQNIVHSNGNTYLEWYLQKPGQSPKLLIYKISNRFSGVPDRFSGSGSGTDFTLRISRVEAEDLGVYYCFQGSHVPFTFGSGTKLEIQ	88.9	–	16.1	0.00148	92000	28.3	0.00146	51600	no binding	–	–	–	–	–
chimeric antibody 055c (antibody, V domains shown) VH: EVKLVESEGGLVQPGDSMKLSCTASGFTFSDYFMTWIRQVPEKGLEWIANVNYDGRSTYYLDSLKSRFIISRDNANNILYLQMSSLKSEDTATYYCAREGSQTPLYAVDYWGQGTSVTVSS VL: DIVMTQSQKFMSTTVGDRVNITCKASQNVGTAVAWYQQKPGQSPKLLIYLASNRYTGVPDRFTGSGSGTDFTLTVSDMRSEDLADYFCQQYSIYPFTFGSGTKLEIK	0.13	no binding	16.6	0.00141	85100	28.5	0.00138	48300	no binding	–	–	–	–	–
chimeric antibody 035c (antibody, V domains shown) VH: QIQLVQSGPELRKPGETVKISCKASGYSFTNYAMNWVKQAPGKVLKWMGFINTYTGEPTYADDFKGRFAFSLETSASTAYLQINNLKNEDTATYFCTRTRGYYDFDGGAFDYWGQGTSLTVSS VL: DIVMTQSQKFMSTSIGDRVSVTCKASQNVGTHLAWYQQKPGQSPKALIFSASYRYIGVPDRFTGSGSGTDFTLTITNVQSEDLAEYFCQQYNTYPLTFGAGTKLELK	91.3	–	1.11	0.000203	183000	2.62	0.000154	59000	–	310	0.42	5270	0.0247	4690
chimeric antibody 074c (antibody, V domains shown) VH: QVQLQQPRAELVKPGASVMLSCKASGYTFSSYWIHWVRQGPGQGLEWIGLIHPNSGNTDCSETFKNKATLTVDTSSSTAYMQLSSLASEDSAVYYCARDGASYDWFVHWGQGTLVTVSA VL: not shown	0.14	no binding	4.4	0.000229	52100	25.2	0.000515	20400	no binding	–	–	–	–	–
chimeric antibody 022c (antibody, V domains shown) VH: QIQLVQSGPELKKPGETVKISCKASGYTFTDYAMHWVKQAPGKGLKWMGWKNTETGESTYAEDFKGRFAFFLETSASTAYLQINNVKNEDTATYFCARGGYGSNYVMDYWGQGTSVIVSS VL: DIQMTQSSSSFSVSLGDRVTITCKASEDIYNRLAWYQQKPGNAPRLLISGATSLETGVPSRFSGSGSGKDYTLSITSLQTEDVATYYCQQYWNSPRTFGGGTKLEIK	–	no binding	5.9	0.00074	125000	25.6	0.00144	56100	no binding	–	–	–	–	–
